Measured values as given in IntAct's records for PubMed 19415799.

B1: Cell division protein FtsZ (Escherichia coli (strain K12)), P0A9A6 (parent)
chain: MFEPMELTNDAVIKVIGVGGGGGNAVEHMVRERIEGVEFFAVNTDAQALRKTAVGQTIQIGSGITKGLGAGANPEVGRNAADEDRDALRAALEGADMVFIAAGMGGGTGTGAAPVVAEVAKDLGILTVAVVTKPFNFEGKKRMAFAEQGITELSKHVDSLITIPNDKLLKVLGRGISLLDAFGAANDVLKGAVQGIAELITRPGLMNVDFADVRTVMSEMGYAMMGSGVASGEDRAEEAAEMAISSPLLEDIDLSGARGVLVNITAGFDLRLDEFETVGNTIRAFASDNATVVIGTSLDPDMNDELRVTVVATGIGMDKRPEITLVTNKQVQQPVMDRYQQHGMAPLTQEQKPVAKVVNDNAPQTAKEPDYLDIPAFLRKQAD
partner: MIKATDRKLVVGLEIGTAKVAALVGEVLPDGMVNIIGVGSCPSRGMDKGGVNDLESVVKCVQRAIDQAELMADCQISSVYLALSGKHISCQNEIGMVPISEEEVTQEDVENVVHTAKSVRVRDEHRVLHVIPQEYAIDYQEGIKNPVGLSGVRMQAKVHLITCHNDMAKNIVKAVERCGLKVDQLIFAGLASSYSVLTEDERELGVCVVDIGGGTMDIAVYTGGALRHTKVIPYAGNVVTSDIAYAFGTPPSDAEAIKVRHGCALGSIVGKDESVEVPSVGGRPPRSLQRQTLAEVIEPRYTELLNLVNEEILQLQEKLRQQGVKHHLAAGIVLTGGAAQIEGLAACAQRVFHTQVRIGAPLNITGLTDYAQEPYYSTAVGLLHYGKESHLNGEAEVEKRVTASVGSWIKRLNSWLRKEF

Variants of: B1
Settings: with ftsa_ecoli ftsA

Row | effect of a mutation on the interaction | Variant
1 | decreasing interaction strength | I374V
